# Entries after “also recorded” stand apart in the source; their conditions may differ. No end group written: not given here.
# Experiments:
# [1] = target: T1, DNA-PK (Homo sapiens, UniProt P78527); test: Phosphorylation of synthetic peptides by purified DNA-PK (phosphocellulose paper binding method); format: biochemical
# T1 construct: DNA-PK was purified from HeLa cells; endogenous in cells; host or cells: HeLa S3 cells; the endogenous enzyme was purified in house by chromatography
# Experimental: Phenylmethylsulfonyl fluoride was added to the S10 (10,000×g) supernatant as a powder to 0.5 mM. DNA-PK activity was found in the 100,000×g (ribosomal) pellet. DNA-PK preparations typically were made from 200 ml of S10 supernatant that had been derived from approximately 10^10 cells. All steps were performed at 4° C. unless indicated otherwise.
# Phosphorylation reactions were performed in a 20- or 40-μl final volume as previously described by Chen, et al., J. Virol., 10:5131-5140 (1991) and Lees-Miller, et al., Mol. Cell. […] In particular, in addition to synthetic peptide substrates or protein substrates, the assays contained 50 mM HEPES (pH 7.5), 100 mM KCl, 10 mM MgCl2, 2 mM EGTA, 0.1 mM EDTA and 0.125 mM ATP containing [^32P]ATP at 0.2 mCi/ml. […] Assays were started by adding 1 μl of kinase sample. Incubations were at 30° C. for 7 min.
# For determinations of kinetic constants, the ATP concentration was 0.5 mM. When present, hsp90 was included at 0.5 mg/ml. Assay mixtures were preincubated at 30° C. for 2 min before addition of 0.1 to 0.5 μg (protein) of the DNA-PK preparation.
# In particular, kinase reactions were stopped by adding an equal volume of 30% acetic acid, and portions of the acidified reaction were spotted on 2- by 2-cm squares of P-81 paper (Whatman, Inc., Clifton, N.J.). […] The P-81 squares were then transferred to scintillation vials containing 3.5 ml of water, and bound radioactivity was determined from the Cerenkov radiation. Enzyme activity was calculated from triplicate determinations, using the specific activity of the ATP and the protein concentration, which was determined by the Bio-Rad dye-binding assay (Bio-Rad (Bradford) Protein Assay Kit 1, Cat. No. 500-001, Bio-Rad Laboratories, Hercules, Calif.), using bovine serum albumin as the standard. […] The kinetic constants, Km and Vmax for each peptide sequence were calculated from plots of 1/[S] versus 1/V, the values reported are averages of at least two independent determinations.
# [2] = system: DNA-PK; test: Phosphorylation of synthetic peptides in crude cell extracts (L 929); format: biochemical, mouse; conditions: peptide 200 μM, 10 min 30° C.
# Experimental: To examine cells for DNA-PK content, extracts from HeLa, T98G human glioblastoma, and mouse L 929 cells were prepared by freeze-thaw lysis of cells harvested from five nearly confluent 9-cm-diameter plates as described in Example 1 and by Lees-Miller, et al. J. Biol. Chem., 264:2431-2437 (1989). T98G (ATCC CRL 1690) is a human glioblastoma cell line; L-929 (ATCC CCL 1) was derived from connective tissue of the NCTC 2071 mouse. Based on earlier work with natural protein substrates, it was expected that extracts of HeLa and T98G cells would contain a significant amount of DNA-PK activity while the extracts of mouse L 929 would contain little, if any, DNA-PK activity. Lysates in low-salt buffer were centrifuged at 10,000×g, to give a supernatant fraction (designated S10) and pellets (designated P10). The pellets were washed by resuspension in a high salt buffer (0.5 M KCl, 25 mM N-2-hydroxyethylpiperazine-N′-2-ethanesulfonic acid (HEPES; pH 7.5), 10 mM MgCl2, 1 mM dithiothreitol) and were sonicated. The sonicated suspension was centrifuged at 10,000×g for 10 min to give a second supernatant fraction (designated P10S), which was diluted with buffer lacking KCl to give a volume equal to that of the original supernatant (S10). Protein concentrations, determined using the Bio-Rad dye-binding assay, were as follows: HeLa S10, 3 mg/ml; HeLa P10S, 1 mg/ml; T98G S10, 3.5 mg/ml;,T98G P10S, 1 mg/ml; L-929 S10, 1 mg/ml; and L-929 P10S, 0.3 mg/ml. These extracts were assayed for the ability to phosphorylate (SEQ ID NOS: 11 and 20) with and without added calf thymus DNA.
# [3] = target: T1, DNA-PK; test: DNA-PK activity in extracts of human cell lines; format: biochemical; conditions: for Specific Activity + DNA: + calf thymus DNA 10 μg/ml; for Specific Activity + DNA / Specific Activity − DNA: peptide 0.2 mM; for Specific Activity − DNA: no added DNA
# Experimental: (§1) Extracts of additional primate and rodent cells were tested for the presence of DNA-PK activity in accordance with the method of the present invention. The DNA-PK activity was determined using the methods described in Examples 1, 4 and 5 for seven human cell lines, two African green monkey kidney lines, and six rodent cell lines.
# (§2) Extracts were prepared essentially as described in Example 10. Cells were lysed by freezing and thawing in hypotonic buffer; soluble (S10) “cytoplasmic” and insoluble in (P10) “nuclear” fractions were made by centrifuging lysates at 10,000×g for 10 min. The insoluble fraction was extracted with buffer containing 0.5 M KCl, which releases any DNA-PK that is bound to DNA. After centrifugation of the salt-washed pellet fraction, which removed the remaining insoluble material, the salt extract (P10S) was diluted and assayed as previously described.
# (§3) Protein concentrations, determined using the Bio-Rad dye binding assay, were between 0.3 and 6 mg/ml. Extracts were incubated at 30° C. for 10 min with each peptide at 0.2 mM in the absence of added DNA (−DNA) or with 10 μg/ml calf thymus DNA (+DNA). After incubation the reaction mixtures were acidified with an equal volume of 30% acetic acid and spotted on to Whatman P-81 phosphocellulose paper (Whatman, Inc., Clifton, N.J.). The filters then were washed extensively in 15% acetic acid before the adsorbed radioactivity was quantitated as described in Example 5.
# (§4) The amount of phosphate incorporated was calculated from the specific activity of the ATP. The rate of phosphate incorporation into the Ser-Gln-Glu peptide (Table 1) (SEQ ID NO: 11) in the presence of calf thymus DNA was approximately linear throughout the 10 minute reaction incubation period. Parallel assays were performed without added peptide, and these background values were subtracted to produce the activities that are shown in Table 3. Background values varied but, in all cases, were less than 0.2 nmol/min/mg (a few percent of the activity present in human cells). The specific activities were calculated from the total activity in the two fractions divided by the total protein in the two fractions. The percent of total DNA-PK activity in the S10 and P10S fractions was determined with peptide (SEQ ID NO: 11) in the presence of added calf thymus DNA. Extracts without substantial DNA-PK activity were examined for their ability to inhibit purified DNA-PK. Inhibitory activity was not detected.
# [4] = system: DNA-PK; test: DNA-PK activity in extracts of monkey cell lines; format: biochemical, African green monkey; conditions: peptide 0.2 mM; for Specific Activity + DNA: + calf thymus DNA 10 μg/ml; for Specific Activity − DNA: no added DNA
# Experimental: as §1, §2, §3, §4
# [5] = system: DNA-PK; test: DNA-PK activity in extracts of hamster cell lines; format: biochemical, Chinese hamster; conditions: peptide 0.2 mM; for Specific Activity + DNA: + calf thymus DNA 10 μg/ml; for Specific Activity − DNA: no added DNA
# Experimental: as §1, §2, §3, §4
sequence,measurement,setting,value
EPPLSEQAFADLWKK [SEQ ID NO: 20],substrate activity for DNA-PK (in words),[1],negligible substrate activity; also recorded: not phosphorylated by DNA-PK
same,PO4 incorp.,"[1]; each peptide at 200 μM, calf thymus DNA 10 μg/ml, 30° C.",0 pmol/min/μg of DNA-PK
same,PO4 incorporated + DNA,"[2]; P10S, + calf thymus DNA 10 μg/ml",0.0 nmol/min/ml of extract
same,PO4 incorporated − DNA,"[2]; P10S, without DNA",0.0 nmol/min/ml of extract
same,PO4 incorporated + DNA,"[2]; S10, + calf thymus DNA 10 μg/ml",0.0 nmol/min/ml of extract
same,PO4 incorporated − DNA,"[2]; S10, without DNA",0.0 nmol/min/ml of extract
same,Specific Activity + DNA,"[3]; Human 293-S, P10S",0.04 nmol PO4/min/mg protein
same,Specific Activity − DNA,"[3]; Human 293-S, P10S",0.0 nmol PO4/min/mg protein
same,Specific Activity + DNA,"[3]; Human 293-S, S10",0.01 nmol PO4/min/mg protein
same,Specific Activity − DNA,"[3]; Human 293-S, S10",0.0 nmol PO4/min/mg protein
same,Specific Activity + DNA,"[3]; Human A549, P10S",0.01 nmol PO4/min/mg protein
same,Specific Activity − DNA,"[3]; Human A549, P10S",0.06 nmol PO4/min/mg protein
same,Specific Activity + DNA,"[3]; Human A549, S10",0.0 nmol PO4/min/mg protein
same,Specific Activity − DNA,"[3]; Human A549, S10",0.02 nmol PO4/min/mg protein
same,Specific Activity + DNA,"[3]; Human HPB-ALL, P10S",0.05 nmol PO4/min/mg protein
same,Specific Activity − DNA,"[3]; Human HPB-ALL, P10S",0.04 nmol PO4/min/mg protein
same,Specific Activity + DNA,"[3]; Human HPB-ALL, S10",0.0 nmol PO4/min/mg protein
same,Specific Activity − DNA,"[3]; Human HPB-ALL, S10",0.04 nmol PO4/min/mg protein
same,Specific Activity + DNA,"[3]; Human HeLa-JW, P10S",0.1 nmol PO4/min/mg protein
same,Specific Activity − DNA,"[3]; Human HeLa-JW, P10S",0.0 nmol PO4/min/mg protein
same,Specific Activity + DNA,"[3]; Human HeLa-JW, S10",0.1 nmol PO4/min/mg protein
same,Specific Activity − DNA,"[3]; Human HeLa-JW, S10",0.0 nmol PO4/min/mg protein
same,Specific Activity + DNA,"[3]; Human MRC 5, P10S",0.04 nmol PO4/min/mg protein
same,Specific Activity − DNA,"[3]; Human MRC 5, P10S",0.02 nmol PO4/min/mg protein
same,Specific Activity + DNA,"[3]; Human MRC 5, S10",0.30 nmol PO4/min/mg protein
same,Specific Activity − DNA,"[3]; Human MRC 5, S10",0.11 nmol PO4/min/mg protein
same,Specific Activity + DNA,"[3]; Human Raji, P10S",0.0 nmol PO4/min/mg protein
same,Specific Activity − DNA,"[3]; Human Raji, P10S",0.0 nmol PO4/min/mg protein
same,Specific Activity + DNA,"[3]; Human Raji, S10",0.0 nmol PO4/min/mg protein
same,Specific Activity − DNA,"[3]; Human Raji, S10",0.08 nmol PO4/min/mg protein
same,Specific Activity + DNA,"[3]; Human T98G, P10S",0.0 nmol PO4/min/mg protein
same,Specific Activity − DNA,"[3]; Human T98G, P10S",0.0 nmol PO4/min/mg protein
same,Specific Activity + DNA,"[3]; Human T98G, S10",0.01 nmol PO4/min/mg protein
same,Specific Activity − DNA,"[3]; Human T98G, S10",0.01 nmol PO4/min/mg protein
same,phosphorylation of the peptide by cell extracts (in words),"[3]; all extracts of Example 11, with or without added DNA",None of the extracts phosphorylated the Ser-Glu-Gln peptide (SEQ ID NO: 20) at a significant rate
same,Specific Activity + DNA,"[4]; Monkey COS-1, P10S",0.24 nmol PO4/min/mg protein
same,Specific Activity − DNA,"[4]; Monkey COS-1, P10S",0.0 nmol PO4/min/mg protein
same,Specific Activity + DNA,"[4]; Monkey COS-1, S10",0.02 nmol PO4/min/mg protein
same,Specific Activity − DNA,"[4]; Monkey COS-1, S10",0.0 nmol PO4/min/mg protein
same,Specific Activity + DNA,"[4]; Monkey CV-1, P10S",0.08 nmol PO4/min/mg protein
same,Specific Activity − DNA,"[4]; Monkey CV-1, P10S",0.08 nmol PO4/min/mg protein
same,Specific Activity + DNA,"[4]; Monkey CV-1, S10",0.05 nmol PO4/min/mg protein
same,Specific Activity − DNA,"[4]; Monkey CV-1, S10",0.0 nmol PO4/min/mg protein
same,Specific Activity + DNA,"[5]; Hamster CHO, P10S",0.06 nmol PO4/min/mg protein
same,Specific Activity − DNA,"[5]; Hamster CHO, P10S",0.0 nmol PO4/min/mg protein
same,Specific Activity + DNA,"[5]; Hamster CHO, S10",0.01 nmol PO4/min/mg protein
same,Specific Activity − DNA,"[5]; Hamster CHO, S10",0.0 nmol PO4/min/mg protein
same,Specific Activity + DNA,"[5]; Hamster V79, P10S",0.05 nmol PO4/min/mg protein
same,Specific Activity − DNA,"[5]; Hamster V79, P10S",0.05 nmol PO4/min/mg protein
same,Specific Activity + DNA,"[5]; Hamster V79, S10",0.0 nmol PO4/min/mg protein
same,Specific Activity − DNA,"[5]; Hamster V79, S10",0.0 nmol PO4/min/mg protein

# Reference: US6803203B1, “DNA-PK assay” (Brookhaven Science Associates, priority 1993, dated 2004)
